Data taken from US20220049002A1 (KINDRED BIOSCIENCES, published 2022).
Changes are numbered by the printed parent chain.

Tests used:
[1] = biological target: T1, Canine IL4R (extracellular domains produced by 293 cells; Examples 16-19) (canine, biotinylated); experiment: method not stated (binding affinity to canine IL4R)
T1 construct: also called biotinylated canine IL4R
T1 chain: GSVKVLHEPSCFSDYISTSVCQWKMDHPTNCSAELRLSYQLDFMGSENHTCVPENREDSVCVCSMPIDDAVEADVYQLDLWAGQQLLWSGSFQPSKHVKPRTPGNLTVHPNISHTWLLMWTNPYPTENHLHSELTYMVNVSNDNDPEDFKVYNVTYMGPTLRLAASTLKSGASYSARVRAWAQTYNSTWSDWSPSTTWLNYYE

[2] = biological target: T2, Canine IL4R-ECD_C-His6 (processed) (canine, biotinylated through amine chemistry in the ELISA and Octet assays); experiment: BLI (Octet): biotinylated canine IL4R-ECD_C-His6 on streptavidin tips, 1:1 model
T2 chain: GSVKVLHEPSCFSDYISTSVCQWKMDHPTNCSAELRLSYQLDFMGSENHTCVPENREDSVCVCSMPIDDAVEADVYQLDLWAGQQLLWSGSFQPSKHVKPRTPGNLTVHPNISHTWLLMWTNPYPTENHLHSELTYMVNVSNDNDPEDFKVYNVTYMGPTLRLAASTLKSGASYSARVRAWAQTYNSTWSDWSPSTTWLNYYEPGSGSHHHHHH
Description: The binding analysis was performed using an Octet Biosensor as follows. Briefly, canine IL4R-ECD_C-His6 (SEQ ID NO: 107) was biotinylated through amine chemistry. The free unreacted biotin was removed by extensive dialysis. Biotinylated canine IL4R-ECD_C-His6 was captured on streptavidin sensor tips. The association of either Clone B or I antibody and canine IL4R-ECD_C-His6 (25 μg/mL) was monitored for 600 seconds. Dissociation was monitored for 600 seconds. A buffer only blank curve was subtracted to correct for any drift. The data were fit to a 1:1 binding model using ForteBio™ data analysis software to determine the kₒₙ, koff, and the Kd. The buffer for dilutions and all binding steps was 20 mM phosphate, 150 mM NaCl, pH 7.2.

[3] = biological target: Canine IL4R-ECD_C-HuFc_His6 (processed) (canine); experiment: BLI (Octet): canine IL4R-ECD_C-HuFc_His6 on anti-human Fc tips
Description: An alternative binding assay was performed also using an Octet Biosensor. Canine IL4R-ECD_C-HuFc_His6 (SEQ ID NO: 109) was captured on anti-human Fc-bound sensor tips. The association of either Clone B or I antibody and canine IL4R-ECD_C-HuFc_His6 was monitored for 600 seconds. Dissociation was monitored for 600 seconds. The buffer for dilutions and all binding steps was 20 mM phosphate, 150 mM NaCl, pH 7.2. […] In addition, amine conjugation may affect the affinity of canine IL4R-ECD_C-His6 to interact with Clone B and I antibodies.

[4] = biological target: T1, Canine IL4R (extracellular domains …); experiment: BLI (ForteBio OctetRed): biotinylated canine IL4R on streptavidin tip
Description: The four mouse antibodies were purified from the hybridoma cell cultures and their affinities to canine IL4R were measured using biosensor (ForteBio OctetRed). Biotinylated canine IL4R was bound to the streptavidin sensor tip. The Kds of the 4 candidates were all less than 10 nM.

[5] = biological target: Canine IL4R-ECD_C-HuFc_His6 (processed) (canine); experiment: Western blot
[6] = biological target: Human IL4R-ECD_C-HuFc_His6 (processed) (human); experiment: Western blot
[7] = biological target: T1, Canine IL4R (extracellular domains …); experiment: BLI (ForteBio OctetRed)
Source text: DNA sequences encoding a chimeric antibody were designed for a fusion of murine VH and murine VL to canine constant heavy chain IgG-B and canine constant light chain (kappa). The nucleotide sequences were synthesized chemically and inserted into an expression vector suitable for transfection into a CHO host cell. After transfection into CHO cells, the light chain or heavy chain protein or both were secreted from the cell. All four chimeric canine IgG-B were purified by single step Protein A column chromatography.

Sequence of Human IL4R-ECD_C-HuFc_His6 (processed) (human) (chain, as listed by the source limits assumed): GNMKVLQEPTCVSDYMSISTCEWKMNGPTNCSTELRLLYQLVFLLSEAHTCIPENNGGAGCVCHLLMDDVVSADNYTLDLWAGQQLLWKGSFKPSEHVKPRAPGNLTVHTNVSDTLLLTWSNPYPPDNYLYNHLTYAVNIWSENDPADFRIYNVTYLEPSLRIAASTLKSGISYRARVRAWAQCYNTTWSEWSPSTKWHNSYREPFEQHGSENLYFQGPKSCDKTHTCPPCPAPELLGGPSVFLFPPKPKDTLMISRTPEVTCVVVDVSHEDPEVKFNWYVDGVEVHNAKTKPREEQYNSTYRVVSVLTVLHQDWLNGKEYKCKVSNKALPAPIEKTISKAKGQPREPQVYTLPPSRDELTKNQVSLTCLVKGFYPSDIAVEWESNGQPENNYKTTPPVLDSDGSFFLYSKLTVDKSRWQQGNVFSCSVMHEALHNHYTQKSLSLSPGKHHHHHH

B1: Caninized Clone M9 antibody, variable HC v1 / variable LC v1 (variant canine IgG-B C1q-, CD16-; canine kappa) (antibody, V domains shown)
VH: EVQLVESGGDLVKPGGSLRLSCAASGFTFSSFGMHWVRQAPGKGLEWVAYIRSDSSTIYYADAVKGRFTISRDNAKNTLYLQMNSLRAEDTAMYYCARSGYYGSFSLTYWGQGTLVTVSS
VL: DIMLTQTPLSLSVSPGEPASISCSASSSVSSNYLHWYLQKAGQSPRLLIYRTSNLPSGVPDRFSGSGSGTDFTLRIGRVEAEDAGIYYCQQGSGMLTFGQGTRLEVRR
notes: also called caninized M9 (HC v1)
B1 was tested. Which Kd [1] did it give?
The Kd was ≤ 1 nM.

B2: Caninized Clone M9 antibody, variable HC v2 / variable LC v1 (variant canine IgG-B C1q-, CD16-; canine kappa) (antibody, V domains shown)
VH: B1 VH with A23V, E46Q
VL: B1 VL
notes: also called caninized M9 (HC v2)
For B2, which Kd [1] is on record?
Its Kd is ≤ 1 nM.

B3: Clone B antibody (mouse monoclonal anti-canine IL4R) (antibody, mouse IgG1, kappa, V domains shown)
VH: EVKLEESGPELVKPGASVKMSCKASGYTFTSYVMHWVKQKPGQGLEWIGYINPKNDGTFYNGKFKGKATLTSDKSSSTAYMELSSLTSEDSAVYYCAAFNYGIAYWGQGTLVTVSS
VL: IVLTQTPSSLSASLGERVSLTCRASQEISGYLSWLQQKPDGTIKRLIYAASTLDSGVPKRFSGSRSGSDFSLTISSLESEDFADYYCVQYASYPWTFGGGARLEIKR
notes: Mouse IgG; also called anti-IL4R-mAb Clone B
For B3, which Kd [2] is on record?
The Kd was 2.03 nM.

What about the Kd [3] of the same binder?
The Kd was ~0.1 nM.

B4: M3 mouse monoclonal antibody (anti-canine IL4R) (antibody, V domains shown)
VH: QVQLKESGPGLVAPSQSLSITCTVSGFSLSRYSVHWVRQPPGKGLEWLGMIWGGGSTDYNSVFKSRLSISKDNSKSQVFLKMNSLQTDDTAMYYCARTYRGYALDYWGQGTSVTVSS
VL: DIQMTQTTSSLSASLGDRVTISCRASQDISNYLNWYQQKPDGTVKLLIYYTSRLQSGVPSRFSGSGSGTDYCLTISNLEQEDIATYFCQQANTLPLTFGSGTKLELK
notes: Mouse antibody purified from hybridoma culture; also called Clone M3
How did the Kd [4] turn out when B4 was run?
Its Kd is < 10 nM.

Does B4 bind [5]?
Result: binds

Does B4 bind [6]?
Result: no binding

B5: Murine-canine chimeric M3 antibody (canine IgG-B, canine kappa) (antibody, V domains shown)
VH: B4 VH
VL: B4 VL
notes: Murine VH and VL fused to canine constant heavy chain IgG-B and canine constant light chain (kappa); also called chimeric canine IgG-B (M3)
B5 was tested. Which Kd [7] did it give?
The Kd was < 10 nM.

B6: M5 mouse monoclonal antibody (anti-canine IL4R) (antibody, V domains shown)
VH: B4 VH
VL: B4 VL
notes: Mouse antibody purified from hybridoma culture; also called Clone M5
For B6, which Kd [4] is on record?
The Kd was < 10 nM.

B7: Murine-canine chimeric M5 antibody (canine IgG-B, canine kappa) (antibody, V domains shown)
VH: B4 VH
VL: B4 VL
notes: Murine VH and VL fused to canine constant heavy chain IgG-B and canine constant light chain (kappa); also called chimeric canine IgG-B (M5)
With B7 as the binder, how does the Kd [7] read?
The Kd was < 10 nM.

B8: Caninized Clone M3 antibody, variable HC v1 / variable LC v1 (variant canine IgG-B C1q-, CD16-; canine kappa) (antibody, V domains shown)
VH: EVQLVESGGDLVKPAGSLRLSCTVSGFSLSRYSVHWVRQAPGKGLEWLGMIWGGGSTDYNSVVKGRFTISRDNAKNTVYLQMNSLRAEDTAMYYCARTYRGYALDYWGQGTLVTVSS
VL: DIVMTQTPLSLSVSPGEPASISCRASQDISNYLNWYLQKAGQSPRLLIYYTSRLQSGVPDRFSGSGSGTDFTLRIGRVEAEDAGIYFCQQANTLPLTFGQGTRLEVRR
notes: also called caninized M3 (HC v1)
With B8 as the binder, how does the Kd [1] read?
The Kd was ≤ 1 nM.

B9: Caninized Clone M3 antibody, variable HC v2 / variable LC v1 (variant canine IgG-B C1q-, CD16-; canine kappa) (antibody, V domains shown)
VH: ELTLQESGPGLVKPSQTLSLTCTVSGFSLSRYSVHWIRQPRGRGLELLGMIWGGGSTDYNPAFQGRISITADTAKNQFSLQLSSMTTEDTAVYYCARTYRGYALDYWGQGTLVTVSS
VL: B8 VL
notes: also called caninized M3 (HC v2)
B9 was tested. Which Kd [1] did it give?
Its Kd is ≤ 1 nM.

B10: M9 mouse monoclonal antibody (anti-canine IL4R) (antibody, V domains shown)
VH: DVQLVESGGGLVQPGGSRKLSCAASGFTFSSFGMHWVRQAPEKGLEWVAYIRSDSSTIYYADTVKGRFTISRDNPKNTLFLQMTSLRSEDTAMYYCARSGYYGSFSLTYWGQGTLVTVSA
VL: EIVLTQSPTTMAASPGEKITITCSASSSVSSNYLHWYQQKPGFSPKLLIYRTSNLPSGVPARFFGSGSGTSYSLTIGTMEAEDVATYYCQQGSGMLTFGAGTKLELK
notes: Mouse antibody purified from hybridoma culture; also called Clone M9
With B10 as the binder, how does the Kd [4] read?
The Kd was < 10 nM.

Does B10 bind [5]?
Result: binds

Does B10 bind [6]?
Result: no binding

B11: Murine-canine chimeric M9 antibody (canine IgG-B, canine kappa) (antibody, V domains shown)
VH: B10 VH
VL: B10 VL
notes: Murine VH and VL fused to canine constant heavy chain IgG-B and canine constant light chain (kappa); also called chimeric canine IgG-B (M9)
For B11, which Kd [7] is on record?
The Kd was < 10 nM.

B12: M8 mouse monoclonal antibody (anti-canine IL4R) (antibody, V domains shown)
VH: QVQLQQSGPELVKPGALVKISCKASGYTFTSYDINWVKQRPGQGLEWIGWIYPGDGSTKYNEKFKGKATLTADKSSSTAYMQLSSLTSEDSAVYFCARSSFVVWGAGTTVTVSS
VL: DIQMTQSSSYLSVSLGGRVTITCKASDPINNWLAWYQQKPGNAPRLLISGATSLETGVPSRISGSGSGKDYSLSITSLQTEDIATYYCHQYWSIPYTFGGGTKLEIK
notes: Mouse antibody purified from hybridoma culture; also called Clone M8
Which Kd [4] does the source give for B12 here?
The Kd was < 10 nM.

Does B12 bind [5]?
Result: binds

Does B12 bind [6]?
Result: no binding

B13: Murine-canine chimeric M8 antibody (canine IgG-B, canine kappa) (antibody, V domains shown)
VH: B12 VH
VL: B12 VL
notes: Murine VH and VL fused to canine constant heavy chain IgG-B and canine constant light chain (kappa); also called chimeric canine IgG-B (M8)
For B13, which Kd [7] is on record?
The Kd was < 10 nM.
